Experimental data published in the DeepSol protein solubility set.

Assay: soluble on expression in E. coli; label from the status in PepcDB or PDB records

Sequence | soluble on expression in E. coli
MGLISKNRGPCQVCHNTETTRRHFGIISCTACAAFFRRSIGMQYLCTAENRCTISFDRKFFCRACRYASCLKAGMKLELIRKQKNNIYLRFPDAASNQQNLVRDSMSPATSEGGQSSSSKTDEESDDPEYSKILKMYHDDLLQYYVKEVKKMMAEKRRGCEKNTLQIKTISDLMLITARQSGPSMEECLRCPGVDMLEKEDVEALLRYYRFSNIWVDSVLIDSVLESAKGDSHTDTDDRLSRFIQEVKSTLGSSLAHLNLNIYEFAAFKALCIWKLRFYETSFAQKIIAHEHYEGVTGALRNYYENCTELADMEIAIRIGDITLQIVTVQNTYHEMVRLYYQIGMPL | not soluble
MGSDKIHHHHHHMSKTIQAITNQIWSMANELRGNMDASEYKNYILAFMFYRYLSEHQERFLVEDEIISPAPGETVQDAYVREAVGNDLVEHLENTASHLGYAIEPEDTWARLVAKIDNSEIVASDYQTIFDHFNANVELNRDAMEDFRGVFNDINLGDSRLGNSTVARAKSLNSIVKLIDSIEYKNDEGKDILGEIYEYLIGQFAASAGKKGGEFYTPHQVSKILAKIVTLGLEKSDTSFSVYDPTMGSGSLLLTVRNELPQGQHIKFYGQEMNTTTYNLARMNLMMHQVSYSNMILNNADTLESDWPDGVDELGIDQPRSFDAVVANPPYSAKWDNRESKLKDPRFMEYGKLAPASKADFAFILHSLYHLNNTGTMAIVLPHGVLFRGAAEGHIRKLIIEKNYLDAVIGLPANLFYGTGIPTTILVFKKNRQTKDVFFIDASKEFEKGKNQNHLSDDMVEKIVETYHNRQSVDKYAHLASIEEIVENDYNLNIPRYVDTFEEEEEIDLGQVTQQLEQDRLEIRALEDKIRQQLKTLGVDF | not soluble
MGSDKIHHHHHHMVFPISLEGYHLEEVVIIGGGVAGLSCLNALLDQGISALLIEGSTIGTPKMCGEFLAPIAAQQLQLWDVDPLIPIPHAAFYAGIRQLDIHFTKPSAAISRSDVELKLAARARRLGGRIRENTYLEYTTPATERTPFYFKLSTGEIIEAKSAFFATGKLSNNKDNKKIALPYFGFKLHFSHTENDHSLKMFSLDKAYLGIVPITETISNCACLAKREAVDAATSPEEHFRHLTQSHPVLKKIFTPLDLSAIDILSGRAPAFTQKKPPNWPNSYWIGDTLASLYPAIGSGFAHSVDSAIQAVQSYLKQQPKLYRINYSKSIKTKVLLGNVFNAALLQPKVGQLALPLLKRSPKLVNLVLKKLDYV | not soluble
MESMLLPKYFDILIVDDIPEHIDVAVQVLRDSNFKIRVATDGNTALKLIYQQKPDLILLDIYMPEMDGFELCRLIKNTPDLKNIPVIFLTSFSDEESIRKGFESGGQDYVVKPFNASELLSRVKTHLMLKCQAESLKEANKELDSFCYTVAHDLKSPLLSLNKLVELLVSDHLNQLDSAGKELVYNIREKSSEIIHTVDRLLEFSKMCEMQVNFEIIDLNELFTEVCNELKSLEPQRDIRIHIQPLPKVYGDRLLMRLLISNILSNAFKYTRNRQTAIIEIQSSEDGNEYVFFVKDNGAGFDMKYSSRLFGVFQRLHSKDEFEGSGVGLAICQRILKRHNGRAWMTGEIDKGATFFFTLPKFE | soluble
MALSANSDAVTYAKAANTRTAAETGDRIEWVKLSLAFLPLATPVSDAKVLTGRQKPLTEVAIIIAEIRSRDGFEGVGFSYSKRAGGQGIYAHAKEIADNLLGEDPNDIDKIYTKLLWAGASVGRSGMAVQAISPIDIALWDMKAKRAGLPLAKLLGAHRDSVQCYNTSGGFLHTPLDQVLKNVVISRENGIGGIKLAVGQPNCAEDIRRLTAVREALGDEFPLMVDANQQWDRETAIRMGRKMEQFNLIWIEEPLDAYDIEGHAQLAAALDTPIATGEMLTSFREHEQLILGNASDFVQPDAPRVGGISPFLKIMDLAAKHGRKLAPHFAMEVHLHLSAAYPLEPWLEHFEWLNPLFNEQLELRDGRMWISDRHGLGFTLSEQARRWTQLTCEFGKRP | soluble
MGSDKIHHHHHHMDADELELKGHLKKLKKEELLRRKQLKESNLQKRELEYNNASKNTSIYISGLPTDKTTKEGLTEQFCKYGMIRTNRDGEPLCKLYVNDKGAFKGDALITYSKEESVTLAIEMMNESIFLGKQIRVERAQFQNKEGDNMHGKENDLKEFNGPEPPIKRLKKAKSEGEGEVIDYNDDESLAKADRTVIFANVFNIYKSYTNDDINDIQEDLLEGCEEIGQVDSISVSPNKGEATVVFKNNKVALQCCKIMTGRYFDGQKLLAFISGDENTSSTSDKNEDSEVEDDLI | not soluble
MRDPEFWHNKWAANQIGFHLEDVNPLLIRFWSDLAPKRSEKVLVPLCGKSEDLIWLANQHDSVQGVELSQIAVRSFFAEHFYTPTVTRLNAQHELYQFDELTLFTGDFFTAPVESVDLVYDRAALVALPEEMRAEYAQRVLQLLKPGGRILLVSMDYVQTELSGPPFSVPEAEIRTLFMGCEVRRVYQDTSIDPHLNKRTQAGLSRFAEEVWVIEKSE | not soluble
SNAKVTVGKSAPYFSLPNEKGEKLSRSAERFRNRYLLLNFWASWCDPQPEANAELKRLNKEYKKNKNFAMLGISLDIDREAWETAIKKDTLSWDQVCDFTGLSSETAKQYAILTLPTNILLSPTGKILARDIQGEALTGKLKELLKTE | soluble
MSLPIRVPDELPAVNFLREENVFVMTTSRASGQEIRPLKVLILNLMPKKIETENQFLRLLSNSPLQVDIQLLRIDSRESRNTPAEHLNNFYCNFEDIQEQNFDGLIVTGAPLGLVEFNDVAYWPQIKQVLEWSKDHVTSTLFVCWAVQAALNILYGIPKQTRTDKLSGVYEHHILHPHALLTRGFDDSFLAPHSRYADFPAALIRDYTDLEILAETEEGDAYLFASKDKRIAFVTGHPEYDAQTLAQEYFRDVEAGLDPEVPYNYFPHNDPQNKPRASWRSHGNLLFTNWLNYYVYQITPYDLRHMNPTLDEGHHHHHH | soluble
MRGLLVATWIFVSVAASATPTTTTKSPPPTTTTLSPQILKAKLPPVVKNATWECGTDEFTKSISEGEIQAKCPKLRDHINSCCLQHDGCYEAQSGQKFCDDTFCSCLERRSRSSKSCHDESAPLFCDLVRTFGDGAYEASGPNASTTEESPAEKDDYDYESHVAGLNATPSSST | not soluble
MIESNHVVLWNRCLEVIKDNVPETTYNTWFAPIVPLKYEDKTLIVQIPSQFFYEILEEKFVDLLRKTLYKAIGEGTKLMYNVMVDKTSIPNQTVNLEASNRSTAVTPKSIVGGNKAPSFLKAPAVQDLDPHLNPNYNFENFIEGYSNKLSRSVAEAVAQNPAGTAFNPLFLYGASGVGKTHLANAIGTKIKELYADKRVLYVSAHLFQVQYTDSVRNNTTNDFINFYQTIDVLIIDDIQEFAGVTKTQNTFFHIFNHLHQNGKQLILTSDRAPVLLQGMEERLLTRFKWGMVAELEKPTVELRKNILRNKIHRDGLQFPPEVIDYIAENVNESVRDLEGIVIAIMARSTIFNKEIDLDLAQHIVHGVVHNETKAVTIDDILKVVCKHFDLEASAIHTKSRKREVVQARQIAMYLAKNYTDFSTSKIGKFIGNKDHATVLHACKTVKGQLEVDKSFQAEVQEIESLLKKKALEHHHHHH | soluble
MYLLLSLALVCTAAASSGYGIPANDDPSYSPPANDNPSYSAPANSDNRLYYDYSSRSSSSSSDSSEERECRKLREFDLPSELKSIGVKAKFSEMERRGKTYTTISCPSNTKTYAIIADKSGSNVSQGDITIQDAVLLATGVNIDVVGRCRGRRTTVVANNGDEVKIKTVVCVELSTSPDKY | not soluble
MKFKRLRTSENKLYYKAMELYKISFPFHEQRKSSLQEEILKNKEYQFNLIYDKNQFVGIILCWETDDFIYVEHFCIFPEMRNNRYGQRALELLNKKGKTIILEIDLPIDEISIYRKAFYERVKYKTNNYEHIHP | not soluble
HHHHHHGSMTIKPLRKAVFPVAGLGTRFLPATKAMPKEMLPVVDRPLIQYAVDEAVEAGIEQMIFVTGRGKSALEDHFDIAYELEATMAARGKSLDVLDGTRLKPGNIAYVRQQEPMGLGHAVWCARDIVGDEPFAVLLPDDFMFGQPGCLKQMVDAYNKVGGNLICAEEVPDDQTHRYGIITPGTQDGVLTEVKGLVEKPAPGTAPSNLSVIGRYILQPEVMRILENQGKGAGGEIQLTDAMQRMIGDQPFHGVTFQGTRYDCGDKAGFIQANLAVALSRPDLEPAVRAFAVKALG | soluble
MTVSDRELEECIRALLDARADSASICPSDVARAVAPDDWRPLMEPVREAAGRLADAGEVEVTQKGAVVDPRSARGPIRIRWTRTD | soluble
MKPIQLPLSVRLRDDATFANYYPGANAAALGYVERLCEAEAGWAESLIYLWGHDGVGRSHLLQAACLRFEQFEERTIYLPMADLVQYGPEIFDDLEQCELVCIDDLDVLVGKREWEEGLFHLFNRLRDTGRRLLLAASKSPRELQVKLPDLKSRLTMALIFQLHGLSDEDKLRALQLRASRRGLHLTDEVGRFILNRGSRSMNSLFDLLEQLDRASLQAQRKLTIPFLKETLGWLEHHHHHH | soluble
SESQEEIIHNIARHLAQIGDEMDHNIQPTLVRQL | soluble
MSLKWAHPIPFPETGCVLVATEKLDGYRTFARTVVLLLRAGTRHPQEGPFGVVINRPLHKNIKHMKSTKTELATTFSECSLYFGGPLEASMFLLKTGDKTKIPGFEEVMPGLNFGTRNSLDEAAVLVKKGVLKPQEFRFFVGYAGWQLDQLREEIESDYWHVAACSSDLICGASSENLWEEILQLMGGQYSELSRKPKLDIEGHHHHHH | soluble
MLRLSAPGQLDDDLCLLGDVQVPVFLLRLGEASWALVEGGISRDAELVWADLCRWVADPSQVHYWLITHKHYDHCGLLPYLCPRLPNVQVLASERTCQAWKSESAVRVVERLNRQLLRAEQRLPEACAWDALPVRAVADGEWLELGPRHRLQVIEAHGHSDDHVVFYDVRRRRLFCGDALGEFDEAEGVWRPLVFDDMEAYLESLERLQRLPTLLQLIPGHGGLLRGRLAADGAESAYTECLRLCRRLLWRQSMGESLDELSEELHRAWGGQSVDFLPGELHLGSMRRMLEILSRQALPLD | not soluble
MGHHHHHHSHMAGAQPGVHALQLKPVCVSDSLKKGTKFVKWDDDSTIVTPIILRTDPQGFFFYWTDQNKETELLDLSLVKDARCGRHAKAPKDPKLRELLDVGNIGRLEQRMITVVYGPDLVNISHLNLVAFQEEVAKEWTNEVFSLATNLLAQNMSRDAFLEKAYTKLKLQVTPEGRIPLKNIYRLFSADRKRVETALEACSLPSSRN | not soluble
MGSDKIHHHHHHMFYRPEDGHGLPHNPFNAVVTPRPIGWISTRSGAGVNNLAPYSFFNAVAYVPPQVMFASTSTKDDQDGTKDSIANIRETGVFCVNVVEYAMRDAMNKTSAALDKGIDEFAHAGLEAVPCETIDCARVAGVPAALECRLTQIVDLPGEANKVAFGEVVGVHLRDDCLVDGVFDVTRYQPLSRLGYRDYAKVSDPFSLSRPDD | not soluble
SASHQEQSYKAGETRGKAQEKTGEAMGTMGDKTQAAKDKTQETAQSAQQKAHETAQSAKDKTSQAAQTTQERAQESKDKTGSYMSETGEAIKNKAHDAAEYTKETAEAGKEKTSGILGQTGEQVKQMAMGATDAVKHTLGLRTDEGNKEHVSSAPSTTTTTTTRETQRK | soluble
